Positions count from the first letter of the chain named.
B1: SEQ ID NO 744 (designed binder)
chain: MGSWVEFSGRLIAIDNRLWALGGSEAELAAFEKEIAAFESELQAYKGKGNPEVEYLRMWAAEIRYILQAYRHN
B2: SEQ ID NO 746 (designed binder)
chain: B1 chain with V5H, S8M, G9E, N16G, M58F, W59V, E62F, Y65D, I66V
B3: SEQ ID NO 742 (designed binder)
chain: B1 chain with V5H, S8I, G9T, I12E, N16Q, M58F, Y65F
B4: SEQ ID NO 743 (designed binder)
chain: B1 chain with V5M, S8F, G9D, I12V, N16E, Y65F, I66L
B5: SEQ ID NO 745 (designed binder)
chain: B1 chain with S8H, G9H, I12F, N16E, W59V
B6: SEQ ID NO 741 (designed binder)
chain: MGSWHEFYDRLDAIYFRLWALGGSEAELAAFEKEIAAFESELQAYKGKGNPEVELLRLLAAEIRKELQAYRHN
B7: SEQ ID NO 777 (designed binder)
chain: MGSWTEFWHRLEAIDSRLWALGGSEAELAAFEKEIAAFESELQAYKGKGNPEVESLREHAAHIRVWLQAYRHN
B8: SEQ ID NO 767 (designed binder)
chain: B7 chain with T5I, W8Y, H9W, S16Q, S55D, E58V, H62A, V65W
B9: SEQ ID NO 749 (designed binder)
chain: B7 chain with T5F, W8Y, H9D, E12N, S16A, S55N, E58V, H62A, V65E
B10: SEQ ID NO 766 (designed binder)
chain: B7 chain with T5F, W8Y, H9E, E12N, S55K, E58A, H62S, V65T
B11: SEQ ID NO 758 (designed binder)
chain: B7 chain with T5L, W8Y, E12N, E58D, V65E
B12: SEQ ID NO 769 (designed binder)
chain: B7 chain with T5E, W8Y, H9Y, S16A, W19F, S55E, E58V, V65D
B13: SEQ ID NO 768 (designed binder)
chain: B7 chain with T5S, W8V, H9K, E12D, S16Q, E58V, H62A, V65A
B14: SEQ ID NO 747 (designed binder)
chain: MGSWKEFIQRLDAIHYRLWALGGSEAELAAFEKEIAAFESELQAYKGKGNPEVEYLRFVAAFIRFELQAYRHN
B15: SEQ ID NO 748 (designed binder)
chain: B14 chain with K5S, Q9F, Y16S, W19Q, V59I, F62E, F65L, E66K
B16: SEQ ID NO: 603 (designed binder)
chain: MGSWVEFMDRLEAIEERLSALGGSEAELAFFEWEIAEFEEHLQVYKGKGNPEVEALEWEALAITEELAAYRHN
notes: D domain, on phage
B17: SEQ ID NO: 613 (designed binder)
chain: MGSWYEFMGRLEAIDERLQALGGSEAELAWFEHEIAEFEWSLQWYKGKGNPEVEALRFEAGAIPWELWAYRHN
notes: D domain, on phage
B18: SEQ ID NO: 621 (designed binder)
chain: MGSWYEFLARLYAIDERLWALGGSEAELATFEHWIADFEEQLQSYKGKGNPEVEALTDEAVAIGEELSAYRHN
notes: D domain, on phage
B19: SEQ ID NO: 611 (designed binder)
chain: MGSWEEFEWRLDAIDERLWALGGSEAELATFEYEIAIFENELQQYKGKGNPEVEALDSEAYAIERELGAYRHN
notes: D domain, on phage
B20: SEQ ID NO: 620 (designed binder)
chain: MGSWNEFVIRLFAIDDRLYALGGSEAELAWFEDEIATFEYELQRYKGKGNPEVEALEYEAEAIVSELFAYRHN
notes: D domain, on phage
B21: SEQ ID NO: 626 (designed binder)
chain: MGSWYEFENRLFAIEERLWALGGSEAELAWFEYEIANFEWGLQSYKGKGNPEVEALDNEAEAIDIELAAYRHN
notes: D domain, on phage
B22: SEQ ID NO: 615 (designed binder)
chain: MGSWEEFHMRLIAIDERLWALGGSEAELAGFEESIAYFESQLQDYKGKGNPEVEALDYEAHAIWRELYAYRHN
notes: D domain, on phage
B23: SEQ ID NO: 602 (designed binder)
chain: MGSWFEFNDRLDAISERLSALGGSEAELAYFEWQIAVFEKTLQNYKGKGNPEVEALTLEANAIFEELEAYRHN
notes: D domain, on phage
B24: SEQ ID NO: 619 (designed binder)
chain: MGSWIEFWNRLEAIEERLYALGGSEAELAYFEDEIAEFEIYLQQYKGKGNPEVEALKHEAEAINKELMAYRHN
notes: D domain, on phage
B25: SEQ ID NO: 614 (designed binder)
chain: MGSWVEFSNRLDAIWERLQALGGSEAELAYFEWEIAEFEWELQSYKGKGNPEVEALNAEADAIEWELEAYRHN
notes: D domain, on phage
B26: SEQ ID NO: 625 (designed binder)
chain: MGSWYEFEQRLEAIEWRLGALGGSEAELATFEEDIADFEEWLQEYKGKGNPEVEALQYEAYAIAEELHAYRHN
notes: D domain, on phage
B27: SEQ ID NO: 606 (designed binder)
chain: MGSWWEFEIRLDAIDERLWALGGSEAELAWFEQSIAFFENDLQVYKGKGNPEVEALRWEANAIIEELFAYRHN
notes: D domain, on phage
B28: SEQ ID NO: 624 (designed binder)
chain: MGSWHEFWQRLEAIEGRLWALGGSEAELADFESLIADFEEQLQEYKGKGNPEVEALMAEAEAIDNELRAYRHN
notes: D domain, on phage
B29: SEQ ID NO: 618 (designed binder)
chain: MGSWWEFNARLDAIEDRLMALGGSEAELAYFEDIIASFENILQQYKGKGNPEVEALWYEAYAIEKELNAYRHN
notes: D domain, on phage
B30: SEQ ID NO: 607 (designed binder)
chain: MGSWYEFEWRLDAIDRRLWALGGSEAELADFEEEIADFEWMLQNYKGKGNPEVEALVDEASAIQTELWAYRHN
notes: D domain, on phage
B31: SEQ ID NO: 608 (designed binder)
chain: MGSWYEFVYRLRAIDERLDALGGSEAELAMFEFEIAFFEDQLQRYKGKGNPEVEALVDEAQAIDFELFAYRHN
notes: D domain, on phage
B32: SEQ ID NO: 605 (designed binder)
chain: MGSWEEFNWRLRAIDERLFALGGSEAELAWFEYDIAEFEEQLQVYKGKGNPEVEALRVEAAAIAEELYAYRHN
notes: D domain, on phage
B33: SEQ ID NO: 600 (designed binder)
chain: MGSWEEFEDRLWAIDGRLYALGGSEAELAWFEQWIATFEEDLQDYKGKGNPEVEALEYEASAIFEELEAYRHN
notes: D domain, on phage
B34: SEQ ID NO: 609 (designed binder)
chain: MGSWWEFEDRLYAIDDRLWALGGSEAELAQFEREIAQFEIWLQEYKGKGNPEVEALDDEATAINSELFAYRHN
notes: D domain, on phage
B35: SEQ ID NO: 622 (designed binder)
chain: MGSWLEFETRLHAIDERLWALGGSEAELAEFEEHIAWFEEDLQFYKGKGNPEVEALDFEADAIGWELWAYRHN
notes: D domain, on phage
B36: SEQ ID NO: 612 (designed binder)
chain: MGSWYEFFDRLDAIDERLWALGGSEAELAWFEAEIAEFEMELQGYKGKGNPEVEALDVEAHAIEMELFAYRHN
notes: D domain, on phage
B37: SEQ ID NO: 617 (designed binder)
chain: MGSWDEFAMRLEAIQARLFALGGSEAELAIFEDEIAFFETMLQDYKGKGNPEVEALEYEAAAIEAELGAYRHN
notes: D domain, on phage
B38: SEQ ID NO: 604 (designed binder)
chain: MGSWIEFMDRLWAIDQRLWALGGSEAELAWFEEEIAWFEEELQVYKGKGNPEVEALEWEATAISEELWAYRHN
notes: D domain, on phage
B39: SEQ ID NO: 623 (designed binder)
chain: MGSWFEFETRLEAIDLRLWALGGSEAELATFEDVIAFFEDWLQFYKGKGNPEVEALKMEAWAIGEELHAYRHN
notes: D domain, on phage
B40: SEQ ID NO: 616 (designed binder)
chain: MGSWWEFKYRLDAICFRLAALGGSEAELASFEDEIAYFEEDLQGYKGKGNPEVEALDYEALAIWDELAAYRHN
notes: D domain, on phage
B41: SEQ ID NO: 610 (designed binder)
chain: MGSWDEFEFRLEAIDSRLWALGGSEAELAVFEYEIAQFEFMLQEYKGKGNPEVEALGMEAWAIENELFAYRHN
notes: D domain, on phage
B42: SEQ ID NO: 601 (designed binder)
chain: MGSWFEFGDRLEAIDERLYALGGSEAELAQFEWWIAEFEHHLQDYKGKGNPEVEALEYEADAIWGELHAYRHN
notes: D domain, on phage

target: T1, AFP p26 (human, UniProt P02771 381-609); test: phage ELISA, A450 target/A450 IgG1-Fc
T1 construct: The construct used is not described
T1 sequence: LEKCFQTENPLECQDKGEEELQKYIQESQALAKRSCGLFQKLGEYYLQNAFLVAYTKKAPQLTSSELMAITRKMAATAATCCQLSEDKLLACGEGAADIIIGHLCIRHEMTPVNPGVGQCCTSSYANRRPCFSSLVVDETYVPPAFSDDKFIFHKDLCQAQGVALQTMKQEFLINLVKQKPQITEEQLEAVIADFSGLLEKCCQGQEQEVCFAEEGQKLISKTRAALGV
In short: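 Individual phagemid colonies picked from panning output were rescued in 96-well format using VCSM13 helper phage. Plates received 1.3 microg/ml goat anti-human IgG1-Fc antibody, followed by 5 nM recombinant human target or IgG1-Fc, and then 50 microl of phage diluted 5× in ELISA blocking buffer. An HRP-conjugated anti-M13 antibody detected binding at 450 nm. For each clone, the ELISA ratio is the absorbance with target divided by that with IgG1-Fc, averaged over every screened well containing the clone.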

Binder | ELISA_avg [ratio]
B1 | 5.28
B2 | 17.9
B3 | 16.9
B4 | 18.6
B5 | 21.4
B6 | 9.6
B7 | 13.2
B8 | 9.4
B9 | 5.92
B10 | 27.1
B11 | 19.2
B12 | 30.3
B13 | 27
B14 | 18.4
B15 | 28.3

target: T2, recombinant human CD123-Fc (human, UniProt P26951 19-305); test: phage ELISA, captured CD123-Fc
T2 construct: not shown: Fc part of CD123-Fc
T2 sequence: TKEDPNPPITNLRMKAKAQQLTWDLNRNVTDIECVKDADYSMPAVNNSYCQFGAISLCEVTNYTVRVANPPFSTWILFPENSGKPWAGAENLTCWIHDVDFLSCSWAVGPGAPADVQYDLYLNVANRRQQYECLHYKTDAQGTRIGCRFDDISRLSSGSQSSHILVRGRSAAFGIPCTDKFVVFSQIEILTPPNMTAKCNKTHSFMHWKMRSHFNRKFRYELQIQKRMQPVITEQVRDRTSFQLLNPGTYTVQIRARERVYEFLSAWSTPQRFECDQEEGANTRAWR
In short: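 Phage from BCMA panning colonies were rescued with VCSM13 helper phage and diluted 5× in blocking buffer. Plates coated with anti-human IgG1-Fc captured 5 nM target-Fc or IgG1-Fc, and binding was detected with HRP anti-M13. Ratio = A450 target/A450 IgG1-Fc, averaged over the clone's wells.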

Binder | ELISA_avg [ratio A450 target/IgG1-Fc]
B16 | 4
B17 | 3.5
B18 | 4.5
B19 | 4.3
B20 | 3.5
B21 | 3.3
B22 | 3.9
B23 | 3.9
B24 | 5.2
B25 | 5.1
B26 | 4.4
B27 | 3.2
B28 | 7
B29 | 3.4
B30 | 10
B31 | 4.5
B32 | 5.4
B33 | 9.4
B34 | 5.5
B35 | 4.6
B36 | 3.7
B37 | 3.7
B38 | 6.5
B39 | 6.6
B40 | 3.1
B41 | 3.6
B42 | 4.5

— patent publication US20230125550A1 (ARCELLX, published 2023)
